Laboratory results from paper PMC10976474.

Experiments:
[1] = target: T1, MBP-PhoB (Synechococcus sp. WH7803) (UniProt A0ACE0B1Y2); assay: EMSA; settings: 10 mM Tris-HCl pH 8, 50 mM KCl, 2 mM MgCl2, 5% glycerol, 0.05 mg/mL BSA, 1 mM DTT, 3 mM spermidine (described as 2x binding buffer); 25 ng DNA, 30 min at 23 C …
T1 sequence: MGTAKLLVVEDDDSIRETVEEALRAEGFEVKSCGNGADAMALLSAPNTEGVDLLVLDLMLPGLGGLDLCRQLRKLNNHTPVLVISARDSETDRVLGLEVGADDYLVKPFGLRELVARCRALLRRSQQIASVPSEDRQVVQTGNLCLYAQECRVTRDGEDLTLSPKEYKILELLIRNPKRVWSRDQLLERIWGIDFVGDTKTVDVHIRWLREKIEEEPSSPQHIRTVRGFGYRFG

[2] = target: T1, MBP-PhoB (Synechococcus sp. WH7803); assay: competition; settings: 10 mM Tris-HCl pH 8, 50 mM KCl, 2 mM MgCl2, 5% glycerol, 0.05 mg/mL BSA, 1 mM DTT, 3 mM spermidine (described as 2x binding buffer); 25 ng DNA, 30 min at 23 C …

Sequence | binding [1] | binding [2]
CAGCAAGAGCGACTTCAATTTCGAAGTTATTATTGTCATGTTTGATTAAATTGTAGGGCGGGTAATTTTTATTGTGATGTGTCATCGAATCCAATCGATGAAATACATCATCCAGACCTACAAAGTGGGGGGAGTAAATATCCCAAGTGAATTTAGTCATTGCTTTCTCCTTTATTTAAGCGAGTTTGAATTAGGATCTCA (double strand) [S-PM2d130 (hsp20) promoter] | no binding | 
AGTTCTTCCCGAGGATTTGTTCGATGAATTCTGAACCAGTAACATCACTTTATCTCTCATTTAACCAAATCAAGTATATTCTTGATGTTATGTGGGGAACCGATCCAGTTACAGCAAAACTATTTGCAAACTCTCACGGAGTTGATGATACCGAACTGGAACGTTATCTTTCCTCTCGTTTAACTGATGGTGATATAACTAAAGTAGATTATACAATTCTTGGAGAAAAATGATTAATGTCAAACAAGAAGATAACGGCAGCTTCAC (double strand) [FAM-S-PM2d004 promoter] | binds | 
TACACTATCTAGGAAACTCATAAATTACCTCTTAGAAAAAACTTAATAGAGAAACTTTTTTCTCATAATCCCAACCAATACATTCTAGCACATTTTTCAATGGTTCCAAGAAAGACTTCTCAAACTGAGTCTGATAGTCAATATACTTATCAACGTTAAACTCCTTGGGAATGTCACTGAAGAATGATATGCAGTTCTCCTGAATTGGGTTTGGTGTTCTCAAG (double strand) [FAM-S-PM2d134 promoter] | binds | 
GTAACTTCCGACACAAATTCTTGATAGCGTTCAAAGTTTACTTTAGACATATTAGATAATAAAAGAACTGAATTTGTCAATTCGCTTTTGGCGAGTTGAAAGGTCTTCAAAAGAATCCGCTAGATCTTCCTGTTCGACAAGAGCATCAGCAGATGTCTCATCATCAACATTATACAGCTTCATCTTTGCTCTGTCAATACCAACTGTAAAACGGCGATGCATCGTAGGATCATTATATCGATTCTTCAATTGCTTCACCATAATACGACTGGATTGTTCT (double strand) [S-PM2d136 (mazG) promoter] | no binding | no binding
AGTTCTTCCCGAGGATTTGTTCGATGAATTCTGAACCAGTAACATCACTTTATCTCTCATTTAACCAAATCAAGTATATTCTTGATGTTATGTGGGGAACCGATCCAGTTACAGCAAAACTATTTGCAAACTCTCACGGAGTTGATGATACCGAACTGGAACGTTATCTTTCCTCTCGTTTAACTGATGGTGATATAACTAAAGTAGATTATACAATTCTTGGAGAAAAATGATTAATGTCAAACAAGAAGATAACGGCAGCTTCAC (double strand) [S-PM2d004 promoter (full-length fragment)] | binds | binds
TACACTATCTAGGAAACTCATAAATTACCTCTTAGAAAAAACTTAATAGAGAAACTTTTTTCTCATAATCCCAACCAATACATTCTAGCACATTTTTCAATGGTTCCAAGAAAGACTTCTCAAACTGAGTCTGATAGTCAATATACTTATCAACGTTAAACTCCTTGGGAATGTCACTGAAGAATGATATGCAGTTCTCCTGAATTGGGTTTGGTGTTCTCAAG (double strand) [S-PM2d134 (uvsX) promoter] | binds | binds
AGGGGTACTGGATCATTTCTGAAGTTGAAGAAATTGATGGTTTGGAGTTTGGGGACCCCGATTGTATGTTAAAATATCCATATGCAGTTGAACAAGGGGTCCTCGTCCCATGGCCACCATATTCAACAGAAAAAAAGATCATTGTAAGATCTTCCGAGATCAGTGTCATGGTTGATCCAGATGCTCCTCGCCTTGCAGATTATGCCAAATTGAAATCAGAAGAGACCTAATGAAATTTTACACCAGCGTACAACAAGCAGGTA (double strand) [S-PM2d133 (gp43) promoter (full-length fragment)] | binds | 
